From the nanobody polyreactivity screen of Harvey et al. (2022)

Experiment: yeast display, Sf9 membrane polyspecificity reagent, FACS + sequencing; frameworks hold sequencing errors
Outline: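 Galactose-induced (36–48 hours) yeast carrying a synthetic nanobody display library were exposed to 10% biotinylated, detergent-solubilized Sf9 membrane reagent at 4 °C for 1 hour. FACS followed streptavidin microbead enrichment, using low and high (top ~1%) gates for expression (anti-HA) and reagent binding (streptavidin). Colony PCR, MiSeq 2 × 250 sequencing and CDR-length filtering followed. Labels for polyreactivity reflect the gate of origin.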

Sequence	polyreactivity (PSR sort gate)
QVQLVESGGGLVQAGGSLRLSCAASGSIFRGYAMGWYRQAPGKERELVAAIRYSGARTYYADSVKGRFTISRDNAKNTVYLQMNSLKPEDTAVYYCNARYIRSYDYWGQGTQVTVSS	high polyreactivity
QVQLVESGGGLVQAGGSLRLSCAASGSIFRGYAMGWYRQAPGKERELVAAITSRGGSTYYADSVKGRFTISRDIAKNTVYLQMNSLKPEDTAVYYCNKRVYYPWGQGTQVTVSS	high polyreactivity
QVQLVESGGGLVQAGGSLRLSCAASGSIFRGYAMGWYRQAPGKERELVAAITSSGGSTNYADSVKGRFTISRDNAKNTVYLQMNSLKPEDTAVYYCNATSEEVAEYDYWGQGTQVTVSS	low polyreactivity
QVQLVESGGGLVQAGGSLRLSCAASGSIFRGYAMGWYRQAPGKERELVASIRWRGGRTNYADSVKGRFTISRDNAKNTVYLQRNSLKPEDTAVYYCNADQQTIRSAKNDYWGQGTQVTVSS	low polyreactivity
QVQLVESGGGLVQAGGSLRLSCAASGSIFRGYDMGWYRQAPGKERELVARISRGTGTHYADSVKGRFTISRDNAKNTVYLQMNSLKPEDTAVYYCAARYRYYPVTTRGYYWGQGTQVTVSS	high polyreactivity
QVQLVESGGGLVQAGGSLRLSCAASGSIFRINAMGWYITAPGKERELVAAISWSGGSTYYADSVKGRFTISRDNAKNTVYLQMNSLKPEDTAVYYCAAVVSKSSFDYWGQGTQVTVSS	low polyreactivity
QVQLVESGGGLVQAGGSLRLSCAASGSIFRINTMGWYLQAPGKERELVAAISFSGTRTYYADSVKGRFTISRDNAKNTVYLQMNSLKPEDTAVYYCAAAGRYTYRTLRDYWGQGTQVTVSS	high polyreactivity
QVQLVESGGGLVQAGGSLRLSCAASGSIFRINVMGWYRQAPGKERELVAAITRGDSTNYADSVKGRFTISRDNAKNSVYLQMNSLKPEDTAVYYCAAGYYYYLRDHDYWGQGTQVTVSS	low polyreactivity
QVQLVESGGGLVQAGGSLRLSCAASGSIFRIYAMGWYRQAPGKERELVAAISFSTGSRTYYADSVKGRFTISRDNAKNTVYLQMNSLKPEDTAVYYCNAESYYDYNYWGQGNQVTVSS	low polyreactivity
QVQLVESGGGLVQAGGSLRLSCAASGSIFRIYAMGWYRQAPGKERELVAAISRGSTRTYYADSVKGRFTISRDNAKNTVYLQMNSLKPEDTAVYYCNKAYPPEYDYWGQGTQVTVSS	high polyreactivity
QVQLVESGGGLVQAGGSLRLSCAASGSIFRIYRMGWYRQAPGKERELVAAISYSGGNTYYADSVKGRFTISRDNAKNTVYLQMNSLKPEDTAVYYCAAVPYRKHSYPFRLNYWGQGTQVTVSS	high polyreactivity
QVQLVESGGGLVQAGGSLRLSCAASGSIFRKYAMGWYRQAPGKEREFVAVITTDGSTNYADSVKRRFTISRDNAKNTVYLQMNSLKPEDTAVYYCNAFRSSIGTDNDFWGQGTQVTVSS	low polyreactivity
QVQLVESGGGLVQAGGSLRLSCAASGSIFRKYAMGWYRQAPGKERELVAVITTDGSTNYADSVKGRFTISRDNAKNTVNLQMNSLKPEDSAVYYCNAVRSSIGTDNDFWGQGTLVTVSS	low polyreactivity
QVQLVESGGGLVQAGGSLRLSCAASGSIFRKYSMGWYRQAPGKERELVAGITGRGGRTYYADSVKGRFTISRDNAKNTVYLQMNSLKPDDTAVYYCAATVSPSYDYWGQGTQVTVSS	high polyreactivity
QVQLVESGGGLVQAGGSLRLSCAASGSIFRLYAMGWYRQAPGKERELVAVISYSGGSTYYADSVKGRFTISRDNAKNTVYLQMNSLNPEDTAVYYCAARRRWYGIRNYYWGQGSQVTVSS	high polyreactivity
QVQLVESGGGLVQAGGSLRLSCAASGSIFRNAMGWYRQAPGKERELVATISYRGGSTYYADSVKGRFTISRDNAKNTVYLQMNSLKPEDTAVYYCNADSKLVGYNYWGQGTQVTVSS	low polyreactivity
QVQLVESGGGLVQAGGSLRLSCAASGSIFRNYAMGLYRQAPGKERELVAAISSRGGTTHYADSVKGRFTISRDNAKNTVYLQMNSLKPEDTAVYYCAADYYLATNPAPLAAGRGYWGQGTQVTVSS	high polyreactivity
QVQLVESGGGLVQAGGSLRLSCAASGSIFRPKAMGWYRQAPGKERELVAAINTSDDSTYYADSVKGRFTISRDNAKNSVYLQMNSLKPEDTAVYYCAAEYYAYPYGDYYDYWGQGTQVSVSS	low polyreactivity
QVQLVESGGGLVQAGGSLRLSCAASGSIFRPNAMGWYRQAPGTEREFVASISGRVGSTYYADSVKGRFTISRDNAKNTVYLQMNSLKPEDTAVYYCAADSRGGYKRNYWGQGTQVTVSS	high polyreactivity
QVQLVESGGGLVQAGGSLRLSCAASGSIFRPYAMGWSRQAPGKERELVAAISWRSGRTYYADSVKGRFTISRDNAKNTVYLQMNSLKPEDTAVYYCAADLASYAYRYDYWGQGTQVTVSS	high polyreactivity
QVQLVESGGGLVQAGGSLRLSCAASGSIFRPYAMGWYRPAPGKERELVAAITSGGRTNYADSVKGRFTISRDNAKNTVYLQMNSLKPEDTAVYYCAKTGSYAKIRPNNDYWGQGTQVTVSS	low polyreactivity
QVQLVESGGGLVQAGGSLRLSCAASGSIFRPYAMGWYRQAPGKERELVAAISGSGGTTYYADSVKGRFTISRDNAKNTVYLQMNSLKTEETAVYYCAARNFSAFWLGGYDYWGQGTQVTVSS	low polyreactivity

Sequence	polyreactivity (PSR sort gate)
QVQLVESGGGLVQAGGSLRLSCAASGSIFRPYAMGWYRQAPGKERELVATITWSGGSTYYADSVKGRFTISRDNAKNTVYLQMNSLKPEDTAVYYCAADPDLLWEYSDGYYGGDGGYWGQGTQVTVSS	low polyreactivity
QVQLVESGGGLVQAGGSLRLSCAASGSIFRPYTMGWYRQAPGKERELVAAITGSGGSTYYADSVKGRFTISRDNAKNTVYLQMNSLKPEDTAVYYCNAGWRVWGYSGSYYWFNYWGQGTQVTVSS	high polyreactivity
QVQLVESGGGLVQAGGSLRLSCAASGSIFRQNAMGWYRQAPGKERELVAAISSSGGSTYYADSVKGRFTISRDNAKNTVYLQMNSLKPEDTAVYYCAARLRRTQTYSSGRPGDYWGQGTQVTVSS	high polyreactivity
QVQLVESGGGLVQAGGSLRLSCAASGSIFRQYAMGWYRQAPGKERELVAAIRRGTSTYYADSVKGRFTISRDNAKNTVYLQMNSLKPEDTAVYYCAKHQHYPHYQPYWSRYDYWGQGTQVTVSS	low polyreactivity
QVQLVESGGGLVQAGGSLRLSCAASGSIFRQYAMGWYRQAPGTERELVAAINYSGGNTYYADSVKGRFTISRDNAKNTVYLQMNSLKPEDTAVYYCAADSVRHYWWAYYYWGQGTQVTVSS	low polyreactivity
QVQLVESGGGLVQAGGSLRLSCAASGSIFRRNAMGWYRQAPGKARELVATITSSGGSTYYADSVKGRFTISRDNAKNTVYLQMNSLKPEDTAVYDCATDGQSPYYIYYWGQGTQVTVSS	low polyreactivity
QVQLVESGGGLVQAGGSLRLSCAASGSIFRRNAMGWYRQAPGKERELVAAISQSGGSTYYADSVKGRFTISRDNAKNTVYLQMNSLKPEDTAVYYCAAKHRVYGTRGYGYDYWGQGTQVTVSS	high polyreactivity
QVQLVESGGGLVQAGGSLRLSCAASGSIFRRNAMGWYRQAPGKERELVAGISGGGSTYYADSVKGRFTISRDNAKNTVYLQMNSLKPEDTAVYYCSTDKHYRWAGFDYWGQGTQVTVSS	low polyreactivity
QVQLVESGGGLVQAGGSLRLSCAASGSIFRRNAMGWYRQAPGKERELVATITSDGSTDYADSVKGRFTISRDNAKNTVYFQMNSLKPEDTAVYYCAVAYLWRPYDFREFDYWGQGTQVTVSS	low polyreactivity
QVQLVESGGGLVQAGGSLRLSCAASGSIFRRYAIGWYRQAPGKERELVAAISGRGGSTYYADSVKGRFTISRDNAKNTVYLQMNSLKPEDTAVYYCNADRYYSHYSYYYWGQGTQVTVSS	high polyreactivity
QVQLVESGGGLVQAGGSLRLSCAASGSIFRRYAMGWYRQAPGKERELVAAITNGGGSTYYADSVKGRFTISRDNAKNTVYLQMNSLKPEDSAVYYCARRLASNYGAYDYWGQGTQVTVSS	low polyreactivity
QVQLVESGGGLVQAGGSLRLSCAASGSIFRRYAMGWYRQAPGKERELVASITSSVGRTYYADSVKGRFTISRDNAKNTVYLQMNSLKPEDTAVYYCAVYVGRWGAGGKGDYWGQGTQVTVSS	low polyreactivity
QVQLVESGGGLVQAGGSLRLSCAASGSIFRRYAMGWYRQAPGKESELVAAITWGGGRTYYADSVKGRFTISRDNAKNTVYLQMNSLKPEDTAVYYCNAERSVYASGKSYLYDYWGQGTQVTVSS	high polyreactivity
QVQLVESGGGLVQAGGSLRLSCAASGSIFRRYDMGWYRQAPGKERELVAAISSSGGSTYYADSVKGRFTISRDNAKNTVYLQMNSLKPEDTAVYYCAADIYDDDRSEYTEYDYWGQGTQVTVSS	low polyreactivity
QVQLVESGGGLVQAGGSLRLSCAASGSIFRRYTMGWYRQAPGKERELVAAISRVGNTNYADSVKGRFTISRDNAKNTVYLQMNSLKPEDTAVYYCAADLYWLLYDEDWYWWEYESDSWGQGTQVTVSS	high polyreactivity
QVQLVESGGGLVQAGGSLRLSCAASGSIFRSNAMGWYRQAPGKERELVAVIRSGGTTNYADSVKGRFTISRDNAKNTVYLQMNSLKPEDTAVYYCAAYGAHGGVIVVEGDYWGQGTQVTVSS	low polyreactivity
QVQLVESGGGLVQAGGSLRLSCAASGSIFRSNAMGWYRQAPGQERELVAAISRSGGRTYYADSVKGRFTISRDNAKNTVYLQMNSLKPEDTAVYYCAAQVVRSLKYEYWGQGTQLTVSS	high polyreactivity
QVQLVESGGGLVQAGGSLRLSCAASGSIFRSYAMGWYRQAPGKERELDAAISRRGSSTYYADSVKGRFTISRDIAKNTVYLQMISLKPEDSAVYYCNRVRYPRVDYWGQGTQVTVSS	high polyreactivity
QVQLVESGGGLVQAGGSLRLSCAASGSIFRSYAMGWYRQAPGKERELVASISRRGGSTYYADSVKGRFTISRDNAKNTVYLQMNSLKPEDTAVYYCAADHYHGYWKYDYWGQGTQVTVSS	low polyreactivity
QVQLVESGGGLVQAGGSLRLSCAASGSIFRSYAMGWYRQSPGKERELVAAITRSGGSTYYADSVKGRFTISRDNAKNTVDLQMNSLKPEDTAVYYCAAEYYSYTWGWGHGYWGQGTQVTVSS	high polyreactivity
QVQLVESGGGLVQAGGSLRLSCAASGSIFRTNAMGWYRQAPGKEREFVASISSDSGNTYYADSVKGRFTISRDNAKNTVYLQMNSLKPEDTAVYYCARRKVRYWSYRAANYYWGQGTQVTVSS	low polyreactivity
